# Laboratory results as given in patent US11702666B2, “Cell-based assay for determining activity in the retinoblastoma pathway” (Medical Diagnostic Laboratories, LLC, priority 2017, dated 2023).
# “Also recorded” adds a separate entry of the source.
# B1: Rb I680T: Rb mutant from COSMIC database (protein)
# chain: MVFTLEDFVGDWEQTAAYNLDQVLEQGGVSSLLQNLAVSVTPIQRIVRSGENALKIDIHVIIPYEGLSADQMAQIEEVFKVVYPVDDHHFKVILPYGTLVIDGVTPNMLNYFGRPYEGIAVFDGKKITVTGTLWNGNKIIDERLITPDGSMLFRVTINSGSSGGGGSGGGGSSGGAQGNSNTIQQLMMILNSASDQPSENLISYFNNCTVNPKESILKRVKDIGYIFKEKFAKAVGQGCVEIGSQRYKLGVRLYYRVMESMLKSEEERLSIQNFSKLLNDNIFHMSLLACALEVVMATYSRSTSQNLDSGTDLSFPWILNVLNLKAFDFYKVIESFIKAEGNLTREMIKHLERCEHRIMESLAWLSDSPLFDLIKQSKDREGPTDHLESACPLNLPLQNNHTAADMYLSPVRSPKKKGSTTRVNSTANAETQATSAFQTQKPLKSTSLSLFYKKVYRLAYLRLNTLCERLLSEHPELEHITWTLFQHTLQNEYELMRDRHLDQIMMCSMYGICKVKNIDLKFKIIVTAYKDLPHAVQETFKRVLIKEEEYDSIIVFYNSVFMQRLKTNILQYASTRPPTLSPIPHIPRSPYKFPSSPLRIPGGNIYISPLKSPYKISEGLPTPTKMTPRSRILVSIGESFGTSEKFQKINQMVCNSDRVLKRSAEGSNPPKPLKKLRFDIEGSDEADGSKHLPGESKFQQKLAEMTSTRTRMQKQKMNDSMDTSNKEEK
# B2: Rb R661W: known Rb null mutant (protein, UniProt P06400 2-928, looked up, variant R661W)
# Retinoblastoma-associated …: PPKTPRKTAATAAAAAAEPPAPPPPPPPEEDPEQDSGPEDLPLVRLEFEETEEPDFTALCQKLKIPDHVRERAWLTWEKVSSVDGVLGGYIQKKKELWGICIFIAAVDLDEMSFTFTELQKNIEISVHKFFNLLKEIDTSTKVDNAMSRLLKKYDVLFALFSKLERTCELIYLTQPSSSISTEINSALVLKVSWITFLLAKGEVLQMEDDLVISFQLMLCVLDYFIKLSPPMLLKEPYKTAVIPINGSPRTPRRGQNRSARIAKQLENDTRIIEVLCKEHECNIDEVKNVYFKNFIPFMNSLGLVTSNGLPEVENLSKRYEEIYLKNKDLDARLFLDHDKTLQTDSIDSFETQRTPRKSNLDEEVNVIPPHTPVRTVMNTIQQLMMILNSASDQPSENLISYFNNCTVNPKESILKRVKDIGYIFKEKFAKAVGQGCVEIGSQRYKLGVRLYYRVMESMLKSEEERLSIQNFSKLLNDNIFHMSLLACALEVVMATYSRSTSQNLDSGTDLSFPWILNVLNLKAFDFYKVIESFIKAEGNLTREMIKHLERCEHRIMESLAWLSDSPLFDLIKQSKDREGPTDHLESACPLNLPLQNNHTAADMYLSPVRSPKKKGSTTRVNSTANAETQATSAFQTQKPLKSTSLSLFYKKVYRLAYLWLNTLCERLLSEHPELEHIIWTLFQHTLQNEYELMRDRHLDQIMMCSMYGICKVKNIDLKFKIIVTAYKDLPHAVQETFKRVLIKEEEYDSIIVFYNSVFMQRLKTNILQYASTRPPTLSPIPHIPRSPYKFPSSPLRIPGGNIYISPLKSPYKISEGLPTPTKMTPRSRILVSIGESFGTSEKFQKINQMVCNSDRVLKRSAEGSNPPKPLKKLRFDIEGSDEADGSKHLPGESKFQQKLAEMTSTRTRMQKQKMNDSMDTSNKEEK
# B3: Rb A488V: Rb mutant from COSMIC database (protein, UniProt P06400 2-928, looked up, variant A488V)
# Retinoblastoma-associated …: PPKTPRKTAATAAAAAAEPPAPPPPPPPEEDPEQDSGPEDLPLVRLEFEETEEPDFTALCQKLKIPDHVRERAWLTWEKVSSVDGVLGGYIQKKKELWGICIFIAAVDLDEMSFTFTELQKNIEISVHKFFNLLKEIDTSTKVDNAMSRLLKKYDVLFALFSKLERTCELIYLTQPSSSISTEINSALVLKVSWITFLLAKGEVLQMEDDLVISFQLMLCVLDYFIKLSPPMLLKEPYKTAVIPINGSPRTPRRGQNRSARIAKQLENDTRIIEVLCKEHECNIDEVKNVYFKNFIPFMNSLGLVTSNGLPEVENLSKRYEEIYLKNKDLDARLFLDHDKTLQTDSIDSFETQRTPRKSNLDEEVNVIPPHTPVRTVMNTIQQLMMILNSASDQPSENLISYFNNCTVNPKESILKRVKDIGYIFKEKFAKAVGQGCVEIGSQRYKLGVRLYYRVMESMLKSEEERLSIQNFSKLLNDNIFHMSLLVCALEVVMATYSRSTSQNLDSGTDLSFPWILNVLNLKAFDFYKVIESFIKAEGNLTREMIKHLERCEHRIMESLAWLSDSPLFDLIKQSKDREGPTDHLESACPLNLPLQNNHTAADMYLSPVRSPKKKGSTTRVNSTANAETQATSAFQTQKPLKSTSLSLFYKKVYRLAYLRLNTLCERLLSEHPELEHIIWTLFQHTLQNEYELMRDRHLDQIMMCSMYGICKVKNIDLKFKIIVTAYKDLPHAVQETFKRVLIKEEEYDSIIVFYNSVFMQRLKTNILQYASTRPPTLSPIPHIPRSPYKFPSSPLRIPGGNIYISPLKSPYKISEGLPTPTKMTPRSRILVSIGESFGTSEKFQKINQMVCNSDRVLKRSAEGSNPPKPLKKLRFDIEGSDEADGSKHLPGESKFQQKLAEMTSTRTRMQKQKMNDSMDTSNKEEK
# B4: Rb R656W: Rb mutant from COSMIC database (protein, UniProt P06400 2-928, looked up, variant R656W)
# Retinoblastoma-associated …: PPKTPRKTAATAAAAAAEPPAPPPPPPPEEDPEQDSGPEDLPLVRLEFEETEEPDFTALCQKLKIPDHVRERAWLTWEKVSSVDGVLGGYIQKKKELWGICIFIAAVDLDEMSFTFTELQKNIEISVHKFFNLLKEIDTSTKVDNAMSRLLKKYDVLFALFSKLERTCELIYLTQPSSSISTEINSALVLKVSWITFLLAKGEVLQMEDDLVISFQLMLCVLDYFIKLSPPMLLKEPYKTAVIPINGSPRTPRRGQNRSARIAKQLENDTRIIEVLCKEHECNIDEVKNVYFKNFIPFMNSLGLVTSNGLPEVENLSKRYEEIYLKNKDLDARLFLDHDKTLQTDSIDSFETQRTPRKSNLDEEVNVIPPHTPVRTVMNTIQQLMMILNSASDQPSENLISYFNNCTVNPKESILKRVKDIGYIFKEKFAKAVGQGCVEIGSQRYKLGVRLYYRVMESMLKSEEERLSIQNFSKLLNDNIFHMSLLACALEVVMATYSRSTSQNLDSGTDLSFPWILNVLNLKAFDFYKVIESFIKAEGNLTREMIKHLERCEHRIMESLAWLSDSPLFDLIKQSKDREGPTDHLESACPLNLPLQNNHTAADMYLSPVRSPKKKGSTTRVNSTANAETQATSAFQTQKPLKSTSLSLFYKKVYWLAYLRLNTLCERLLSEHPELEHIIWTLFQHTLQNEYELMRDRHLDQIMMCSMYGICKVKNIDLKFKIIVTAYKDLPHAVQETFKRVLIKEEEYDSIIVFYNSVFMQRLKTNILQYASTRPPTLSPIPHIPRSPYKFPSSPLRIPGGNIYISPLKSPYKISEGLPTPTKMTPRSRILVSIGESFGTSEKFQKINQMVCNSDRVLKRSAEGSNPPKPLKKLRFDIEGSDEADGSKHLPGESKFQQKLAEMTSTRTRMQKQKMNDSMDTSNKEEK
# B5: Rb C706F: known Rb null mutant (protein, UniProt P06400 2-928, looked up, variant C706F)
# Retinoblastoma-associated …: PPKTPRKTAATAAAAAAEPPAPPPPPPPEEDPEQDSGPEDLPLVRLEFEETEEPDFTALCQKLKIPDHVRERAWLTWEKVSSVDGVLGGYIQKKKELWGICIFIAAVDLDEMSFTFTELQKNIEISVHKFFNLLKEIDTSTKVDNAMSRLLKKYDVLFALFSKLERTCELIYLTQPSSSISTEINSALVLKVSWITFLLAKGEVLQMEDDLVISFQLMLCVLDYFIKLSPPMLLKEPYKTAVIPINGSPRTPRRGQNRSARIAKQLENDTRIIEVLCKEHECNIDEVKNVYFKNFIPFMNSLGLVTSNGLPEVENLSKRYEEIYLKNKDLDARLFLDHDKTLQTDSIDSFETQRTPRKSNLDEEVNVIPPHTPVRTVMNTIQQLMMILNSASDQPSENLISYFNNCTVNPKESILKRVKDIGYIFKEKFAKAVGQGCVEIGSQRYKLGVRLYYRVMESMLKSEEERLSIQNFSKLLNDNIFHMSLLACALEVVMATYSRSTSQNLDSGTDLSFPWILNVLNLKAFDFYKVIESFIKAEGNLTREMIKHLERCEHRIMESLAWLSDSPLFDLIKQSKDREGPTDHLESACPLNLPLQNNHTAADMYLSPVRSPKKKGSTTRVNSTANAETQATSAFQTQKPLKSTSLSLFYKKVYRLAYLRLNTLCERLLSEHPELEHIIWTLFQHTLQNEYELMRDRHLDQIMMFSMYGICKVKNIDLKFKIIVTAYKDLPHAVQETFKRVLIKEEEYDSIIVFYNSVFMQRLKTNILQYASTRPPTLSPIPHIPRSPYKFPSSPLRIPGGNIYISPLKSPYKISEGLPTPTKMTPRSRILVSIGESFGTSEKFQKINQMVCNSDRVLKRSAEGSNPPKPLKKLRFDIEGSDEADGSKHLPGESKFQQKLAEMTSTRTRMQKQKMNDSMDTSNKEEK
# Test system: E2F1/Dp-1 heterodimer
# Test: Rb activity assay (LB-Rb with E2F1-SB, DP1 split luciferase)
# Assay type: cell-based, human
# Design: key to Observed activity: N—no activity; A—active as WT; R—reduced activity compared to the WT
# Details: for Observed activity / % (/wt): Rb mutants; for % (/wt): activity relative to WT; for luciferase activity / E2F1 interaction of Rb mutant: LB-Rb and E2F1-SB with Dp-1
# Source text: An assay that could measure the interaction between Rb, E2F1, and Dp-1 was developed. Since Dp-1 forms a heterodimer with E2F1 and that interaction is crucial for Rb/E2F1 binding, the assay was comprised of three components. When two proteins (Rb and E2F1) are in close proximity or in complex, a light signal was observed. For the purposes of the current assay, split-luciferase complementation was used to measure the interaction between Rb and E2F1. The NanoBiT assay system by Promega (Madison, Wis.; Dixon et al., 2015, ACS ChemBiol) was used in our split luciferase complementation design.
# FIG. 16 depicts the design of a signal system to measure Rb activity. Under basal conditions inside the cell, Rb was active and interacted with the E2F1/Dp-1 heterodimer. For this assay design, cDNAs of Rb linked to different parts of the luciferase protein, either termed as the “Small BiT” (SB), or “Large BiT” (LB) and E2F1 linked to the opposite portion of the luciferase protein were created. When Rb and E2F1/Dp-1 bind, the NanoBiT parts of the luciferase form a complex and emitted a light signal when the luciferase (NanoGlo) substrate was added.
# Using the described assay design, HEK293 CDK DKO cells were transiently transfected with different combinations of SB-Rb or LB-Rb and E2F1-LB or E2F1-SB components containing C-terminal and N-terminal constructs (FIG. 17). Relative intensities generated are presented in FIG. 17 as relative luminescence units (RLU). The data represents a sample experiment where each condition was performed in triplicate and represent mean+SD.
# The LB-Rb and E2F1-SB with Dp-1 were tested for Rb activity using known Rb null mutants: R661W and C706F (FIG. 18A). […] Rb in-frame (del35) and out-of frame (del1) deletion mutants (FIG. 18B) were constructed and the observed luciferase activity was close to 0, in particular for del1 mutant, because Rb-E2F1 binding was destroyed.
# Within the provided assay design, stable cell lines using the HEK293 CDK DKO cell parent line expressing E2F1-SB and Dp-1 were produced. After selection and screening for positive clones using an LB-Rb-mediated increase in signal, four stable single cell clones were selected and evaluated using different Rb mutants (FIGS. 19A and 19B). The response to E2F1 interaction was also checked by using the plasmid and linear form of DNA. Cell line #37 was selected for all our experiments in assay development due to its favorable response.
# The conditions of the assay were further optimized by analyzing different cell numbers and Rb concentrations (FIG. 20). Based on the data, it was decided to use 0.2×10^6 cells/ml and 70 ng of DNA in the assay.
# Known null and out/in-frame deletion mutants disrupting E2F1 binding and unknown COSMIC mutants were created to examine the ability of the assay to detect variants in Rb that affect function. We transfected WT or mutated Rb using similar conditions as previously indicated (FIG. 20). […] In addition, the null C706F and deletion (del1) mutants presented a signal close to zero as expected for loss of function mutants that disrupt E2F1 interaction. […] This confirmed that the assay was capable of determining the relative activity level of Rb mutants. The data is provided in Luminescence (RLU) of a single experiment with each condition performed in triplicate and represent average+SD.
# Sequence of E2F1/Dp-1 heterodimer (Q01094 58-437 limits assumed): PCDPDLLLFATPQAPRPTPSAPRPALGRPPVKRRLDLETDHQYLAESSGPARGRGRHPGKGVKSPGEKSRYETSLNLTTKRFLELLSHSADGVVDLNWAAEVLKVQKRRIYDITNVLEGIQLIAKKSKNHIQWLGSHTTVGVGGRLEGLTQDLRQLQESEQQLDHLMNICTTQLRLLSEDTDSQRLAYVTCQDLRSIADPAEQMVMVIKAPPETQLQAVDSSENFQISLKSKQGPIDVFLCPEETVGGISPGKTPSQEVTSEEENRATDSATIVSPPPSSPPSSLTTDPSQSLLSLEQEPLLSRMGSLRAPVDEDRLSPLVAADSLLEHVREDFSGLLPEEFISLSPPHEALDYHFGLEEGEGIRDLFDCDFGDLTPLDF
# Sequence of E2F1/Dp-1 heterodimer (Q14186 whole entry, further chain): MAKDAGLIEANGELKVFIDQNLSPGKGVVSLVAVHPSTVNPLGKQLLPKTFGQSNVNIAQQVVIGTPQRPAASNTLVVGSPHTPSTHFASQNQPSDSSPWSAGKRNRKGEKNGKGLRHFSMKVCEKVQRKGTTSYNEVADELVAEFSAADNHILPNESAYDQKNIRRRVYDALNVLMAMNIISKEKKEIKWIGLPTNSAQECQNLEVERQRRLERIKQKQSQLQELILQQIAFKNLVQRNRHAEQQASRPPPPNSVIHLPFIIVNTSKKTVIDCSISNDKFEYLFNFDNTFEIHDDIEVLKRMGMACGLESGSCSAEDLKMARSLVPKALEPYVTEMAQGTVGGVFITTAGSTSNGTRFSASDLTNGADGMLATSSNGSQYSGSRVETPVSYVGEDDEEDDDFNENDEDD
molecule,measurement,value
B1,Observed activity,R
same,% (/wt),32%
B2,luciferase activity / E2F1 interaction of Rb mutant,completely disrupted the E2F1 interaction
same,Observed activity,N
same,% (/wt),5.2%
B3,Observed activity,R
same,% (/wt),51%
B4,Observed activity,A
same,% (/wt),79%
B5,luciferase activity / E2F1 interaction of Rb mutant,completely disrupted the E2F1 interaction; also recorded: close to zero
same,Observed activity,N
same,% (/wt),5.5%
